Results as given in paper PMC10329691, “The structural pathology for hypophosphatasia caused by malfunctional tissue non-specific alkaline phosphatase” (Nature Communications, 2023).
Where a chain is given by its changes, count along the chain named. Numbers in names are those of the source.

Assays:
[1] = biological target: the molecule itself; assay: SEC; Superdex 200 Increase 10/300 GL, 20 mM HEPES pH 7.5, 150 mM NaCl; purified TNAP alone
[2] = biological target: the molecule itself; assay: SEC-MALS; static light scattering, WTC-030S5 column, 150 mM NaCl, 20 mM HEPES pH 7.5, 0.5 mL/min
[3] = biological target: the molecule itself; assay: crystal structure; crystals of hTNAP 18-500 grown at acidic pH (PEG3350, sodium acetate pH 5.0; about 2.9 Å) and at basic pH (PEG4000, Tris pH 8.0, MgCl2; about 3.2 Å)
[4] = biological target: T1, human tissue non-specific alkaline phosphatase, amino acids 18-500 (hTNAP^18–500) (human, UniProt P05186, N-glycosylation (asparagine residues, seen in the crystal structure)); assay: cryo-EM structure; hTNAP 18-500-scFv complex, 300 kV Titan Krios, C2 symmetry, 2.96 Å; details: both partners purified
T1 construct: human tissue non-specific alkaline phosphatase (ALPL gene), amino acids 18-500, the mature form with the GPI-anchor amidated residue Ser 501 removed; HA signal peptide at the N-terminus for secretion; TEV protease site before the Flag and His tags, no cleavage described; Dimer dominates in solution, with higher oligomers; octamer in the crystals; The same range was also made in Expi293F from …

B1: TNAP^T167M (active site mutant of hTNAP 18-500) (enzyme, human, UniProt P05186 18-500, looked up)
chain: LVPEKEKDPKYWRDQAQETLKYALELQKLNTNVAKNVIMFLGDGMGVSTVTAARILKGQLHHNPGEETRLEMDKFPFVALSKTYNTNAQVPDSAGTATAYLCGVKANEGTVGVSAATERSRCNTTQGNEVTSILRWAKDAGKSVGIVTTMRVNHATPSAAYAHSADRDWYSDNEMPPEALSQGCKDIAYQLMHNIRDIDVIMGGGRKYMYPKNKTDVEYESDEKARGTRLDGLDLVDTWKSFKPRYKHSHFIWNRTELLTLDPHNVDYLLGLFEPGDMQYELNRNNVTDPSLSEMVVVAIQILRKNPKGFFLLVEGGRIDHGHHEGKAKQALHEAVEMDRAIGQAGSLTSSEDTLTVVTADHSHVFTFGGYTPRGNSIFGLAPMLSDTDKKPFTAILYGNGPGYKVVGGERENVSMVDYAHNNYQAQSAVPLRHETHGGEDVAVFSKGPMAHLLHGVHEQNYVPHVMAYAACIGANLGHCAPA
notes: human tissue non-specific alkaline phosphatase, amino acids 18-500, with the hypophosphatasia mutation T167M; HA signal peptide at the N-terminus; PreScission site before the tags; also called active site mutant TNAP^T167M; source: Expi293F, transfected, purified from the supernatant (Nickel-chelating resin, SEC)
stoichiometry N [1]: 2

B2: TNAP^R450C (dimeric interface mutant of hTNAP 18-500) (enzyme, human, UniProt P05186 18-500, looked up)
chain: B1 chain with M150T, R433C
notes: human tissue non-specific alkaline phosphatase, amino acids 18-500, with the hypophosphatasia mutation R450C; HA signal peptide at the N-terminus; PreScission site before the tags; also called dimeric interface mutant TNAP^R450C; source: Expi293F, transfected, purified from the supernatant (Nickel-chelating resin, SEC)
stoichiometry N [1]: 2

B3: human tissue non-specific alkaline phosphatase, amino acids 18-500 (hTNAP^18–500) (enzyme, UniProt P05186 18-500, looked up)
chain: B1 chain with M150T
modifications: N-glycosylation (asparagine residues, seen in the crystal structure)
notes: human tissue non-specific alkaline phosphatase (ALPL gene), amino acids 18-500, the mature form with the GPI-anchor amidated residue Ser 501 removed; HA signal peptide at the N-terminus for secretion; TEV protease site before the Flag and His tags, no cleavage described; Dimer dominates in solution, with higher oligomers; octamer in the crystals; The same range was also made in Expi293F from …
stoichiometry N [2]: 2
stoichiometry N [3]: 8

B4: scFv of the TNAP agonist antibody JTALP001 (scFv, V domains shown)
VH: QVQLVQSGAEVKKPGASVKVSCKASGYTFTSYGISWVRQAPGQGLEWMGWISAYNGNTNYAQKLQGRVTMTTDTSTSTAYMELRSLRSDDTAVYYCARDKGWNSEGSLEYWGQGTLVTVSS
VL: DIVMTQSPSSVSASVGDRVTITCRASQGISNWLGWYQQKPGKAPKLLIYGASSLQSGVPSRFSGSGSGTDFTLTISSLQPEDFATYFCQQAYSLPLTFGGGTKLEIK
notes: scFv selected from a human scFv phage library against hTNAP 18-500; The Fc fragment of JTALP001 was replaced by a His-tag; also called scFv fragment; scFv antibody; source: Expi293F, purified (Nickel-chelating resin)
stoichiometry N [4]: 1 scFv per TNAP protomer
